Holding throughout (format): functional, cell-based
Substrate in data set [1]: CN(Cc1cnc2nc(N)nc(N)c2n1)c1ccc(C(=O)N[C@@H](CCC(=O)O)C(=O)O)cc1
Nature of the data set: (§1) TP_TRANSPORTER: uptake in MRP1-expressing MCF7 cells.

Substrate in data set [2]: N[C@@H](CCC(=O)N[C@H](CSCCCCC/C=C/C=C1/C(=O)C=C[C@@H]1C/C=C\CCCC(=O)O)C(=O)NCC(=O)O)C(=O)O
Described as §1.

Substrate in data set [3]: CN(Cc1cnc2nc(N)nc(N)c2n1)c1ccc(C(=O)N[C@@H](CCC(=O)O)C(=O)O)cc1
Kind of data set: (§2) TP_TRANSPORTER: uptake in MRP3-expressing MCF7 cells.

Substrate in data set [4]: N[C@@H](CCC(=O)N[C@H](CSCCCCC/C=C/C=C1/C(=O)C=C[C@@H]1C/C=C\CCCC(=O)O)C(=O)NCC(=O)O)C(=O)O
Described as §2.

B1: Multidrug resistance-associated protein 1 (Homo sapiens) (protein)
chain: MALRGFCSADGSDPLWDWNVTWNTSNPDFTKCFQNTVLVWVPCFYLWACFPFYFLYLSRHDRGYIQMTPLNKTKTALGFLLWIVCWADLFYSFWERSRGIFLAPVFLVSPTLLGITMLLATFLIQLERRKGVQSSGIMLTFWLVALVCALAILRSKIMTALKEDAQVDLFRDITFYVYFSLLLIQLVLSCFSDRSPLFSETIHDPNPCPESSASFLSRITFWWITGLIVRGYRQPLEGSDLWSLNKEDTSEQVVPVLVKNWKKECAKTRKQPVKVVYSSKDPAQPKESSKVDANEEVEALIVKSPQKEWNPSLFKVLYKTFGPYFLMSFFFKAIHDLMMFSGPQILKLLIKFVNDTKAPDWQGYFYTVLLFVTACLQTLVLHQYFHICFVSGMRIKTAVIGAVYRKALVITNSARKSSTVGEIVNLMSVDAQRFMDLATYINMIWSAPLQVILALYLLWLNLGPSVLAGVAVMVLMVPVNAVMAMKTKTYQVAHMKSKDNRIKLMNEILNGIKVLKLYAWELAFKDKVLAIRQEELKVLKKSAYLSAVGTFTWVCTPFLVALCTFAVYVTIDENNILDAQTAFVSLALFNILRFPLNILPMVISSIVQASVSLKRLRIFLSHEELEPDSIERRPVKDGGGTNSITVRNATFTWARSDPPTLNGITFSIPEGALVAVVGQVGCGKSSLLSALLAEMDKVEGHVAIKGSVAYVPQQAWIQNDSLRENILFGCQLEEPYYRSVIQACALLPDLEILPSGDRTEIGEKGVNLSGGQKQRVSLARAVYSNADIYLFDDPLSAVDAHVGKHIFENVIGPKGMLKNKTRILVTHSMSYLPQVDVIIVMSGGKISEMGSYQELLARDGAFAEFLRTYASTEQEQDAEENGVTGVSGPGKEAKQMENGMLVTDSAGKQLQRQLSSSSSYSGDISRHHNSTAELQKAEAKKEETWKLMEADKAQTGQVKLSVYWDYMKAIGLFISFLSIFLFMCNHVSALASNYWLSLWTDDPIVNGTQEHTKVRLSVYGALGISQGIAVFGYSMAVSIGGILASRCLHVDLLHSILRSPMSFFERTPSGNLVNRFSKELDTVDSMIPEVIKMFMGSLFNVIGACIVILLATPIAAIIIPPLGLIYFFVQRFYVASSRQLKRLESVSRSPVYSHFNETLLGVSVIRAFEEQERFIHQSDLKVDENQKAYYPSIVANRWLAVRLECVGNCIVLFAALFAVISRHSLSAGLVGLSVSYSLQVTTYLNWLVRMSSEMETNIVAVERLKEYSETEKEAPWQIQETAPPSSWPQVGRVEFRNYCLRYREDLDFVLRHINVTINGGEKVGIVGRTGAGKSSLTLGLFRINESAEGEIIIDGINIAKIGLHDLRFKITIIPQDPVLFSGSLRMNLDPFSQYSDEEVWTSLELAHLKDFVSALPDKLDHECAEGGENLSVGQRQLVCLARALLRKTKILVLDEATAAVDLETDDLIQSTIRTQFEDCTVLTIAHRLNTIMDYTRVIVLDKGEIQEYGAPSDLLQQRGLFYSMAKDAGLV
For the protein B1, the results for the Michaelis constant (Km) in data set [1] and in data set [2] were 930 µM and 1.4 µM, respectively.

B2: Multidrug resistance associated protein (Homo sapiens), Q96QA9 (protein)
chain: MDALCGSGELGSKFWDSNLSVHTENPDLTPCFQNSLLAWVPCIYLWVALPCYLLYLRHHCRGYIILSHLSKLKMVLGVLLWCVSWADLFYSFHGLVHGRAPAPVFFVTPLVVGVTMLLATLLIQYERLQGVQSSGVLIIFWFLCVVCAIVPFRSKILLAKAEGEISDPFRFTTFYIHFALVLSALILACFREKPPFFSAKNVDPNPYPETSAGFLSRLFFWWFTKMAIYGYRHPLEEKDLWSLKEEDRSQMVVQQLLEAWRKQEKQTARHKASAAPGKNASGEDEVLLGARPRPRKPSFLKALLATFGSSFLISACFKLIQDLLSFINPQLLSILIRFISNPMAPSWWGFLVAGLMFLCSMMQSLILQHYYHYIFVTGVKFRTGIMGVIYRKALVITNSVKRASTVGEIVNLMSVDAQRFMDLAPFLNLLWSAPLQIILAIYFLWQNLGPSVLAGVAFMVLLIPLNGAVAVKMRAFQVKQMKLKDSRIKLMSEILNGIKVLKLYAWEPSFLKQVEGIRQGELQLLRTAAYLHTTTTFTWMCSPFLVTLITLWVYVYVDPNNVLDAEKAFVSVSLFNILRLPLNMLPQLISNLTQASVSLKRIQQFLSQEELDPQSVERKTISPGYAITIHSGTFTWAQDLPPTLHSLDIQVPKGALVAVVGPVGCGKSSLVSALLGEMEKLEGKVHMKGSVAYVPQQAWIQNCTLQENVLFGKALNPKRYQQTLEACALLADLEMLPGGDQTEIGEKGINLSGGQRQRVSLARAVYSDADIFLLDDPLSAVDSHVAKHIFDHVIGPEGVLAGKTRVLVTHGISFLPQTDFIIVLADGQVSEMGPYPALLQRNGSFANFLCNYAPDEDQGHLEDSWTALEGAEDKEALLIEDTLSNHTDLTDNDPVTYVVQKQFMRQLSALSSDGEGQGRPVPRRHLGPSEKVQVTEAKADGALTQEEKAAIGTVELSVFWDYAKAVGLCTTLAICLLYVGQSAAAIGANVWLSAWTNDAMADSRQNNTSLRLGVYAALGILQGFLVMLAAMAMAAGGIQAARVLHQALLHNKIRSPQSFFDTTPSGRILNCFSKDIYVVDEVLAPVILMLLNSFFNAISTLVVIMASTPLFTVVILPLAVLYTLVQRFYAATSRQLKRLESVSRSPIYSHFSETVTGASVIRAYNRSRDFEIISDTKVDANQRSCYPYIISNRWLSIGVEFVGNCVVLFAALFAVIGRSSLNPGLVGLSVSYSLQVTFALNWMIRMMSDLESNIVAVERVKEYSKTETEAPWVVEGSRPPEGWPPRGEVEFRNYSVRYRPGLDLVLRDLSLHVHGGEKVGIVGRTGAGKSSMTLCLFRILEAAKGEIRIDGLNVADIGDPILFSGTLRMNLDPFGSYSEEDIWWALELSHLHTFVSSQPAGLDFQCSEGGENLSVGQRQLVCLARALLRKSRILVLDEATAAIDLETDNLIQATIRTQFDTCTVLTIAHRLNTIMDYTRVLVLDKGVVAEFDSPANLIAARGIFYGMARDAGLA
For the protein B2, the Km in data set [3] came to 910 µM; in data set [4], 2.9 µM.

As usually defined, the Km is the substrate concentration at which the rate is half of its maximum.

The values are drawn from ChEMBL document CHEMBL2074012, “Multidrug resistance protein (MRP) 1 and MRP3 attenuate cytotoxic and transactivating effects of the cyclopentenone prostaglandin, 15-deoxy-Delta(12,14)prostaglandin J2 in MCF7 breast cancer cells” (Biochemistry, 2003).
